Measured values taken from patent US20020198143A1 (Human Genome Sciences, published 2002).

Target: T1, human B7-H3 protein expressed on transfected 293 cells (human, UniProt Q5ZPR3 29-534)
T1 construct: also called B7-H3/293 cells
T1 sequence: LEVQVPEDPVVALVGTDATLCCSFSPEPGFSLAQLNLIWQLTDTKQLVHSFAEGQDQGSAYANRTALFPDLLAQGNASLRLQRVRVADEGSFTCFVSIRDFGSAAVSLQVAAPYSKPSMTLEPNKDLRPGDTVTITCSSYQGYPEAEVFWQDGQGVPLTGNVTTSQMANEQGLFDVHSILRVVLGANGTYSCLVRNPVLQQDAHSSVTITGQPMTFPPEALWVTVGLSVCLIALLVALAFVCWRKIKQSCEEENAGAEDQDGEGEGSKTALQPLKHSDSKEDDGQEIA
Test: FACS on 293 cells transfected with B7-H3
Source text: It has been reported that both CTLA-4 nd ICOS can be induced to express on the surface of activated T cells, while CD28 expresses constitutively.

B1: ICOSIg (Fc fusion, UniProt Q9Y6W8 21-140, looked up)
chain: EINGSANYEMFIFHNGGVQILCKYPDIVQQFKMQLLKGGQILCDLTKTKGSGNTVSIKSLKFCHSQLSNNSVSFFLYNLDHSHANYYFCNLSIFDPPPFKVTLTGGYLHIYESQLCCQLK
notes: extracellular domain; not shown: Fc constant region of mouse IgG2a, inferred from 'similar methods'
- binding result: no binding
